Experimental findings from US20230104705A1 (CELLULAR BIOMEDICINE GROUP HK, published 2023) are described below.

The target in assay [1] is T1, CD20 (UniProt P11836 1-297).
T1 construct: whole, on cells; also called B1; CD20 on A549-CD20, A549-CD19-CD20, K562-CD20+, K562-CD19+CD20+, Raji and Ramos cells
T1 sequence (looked up): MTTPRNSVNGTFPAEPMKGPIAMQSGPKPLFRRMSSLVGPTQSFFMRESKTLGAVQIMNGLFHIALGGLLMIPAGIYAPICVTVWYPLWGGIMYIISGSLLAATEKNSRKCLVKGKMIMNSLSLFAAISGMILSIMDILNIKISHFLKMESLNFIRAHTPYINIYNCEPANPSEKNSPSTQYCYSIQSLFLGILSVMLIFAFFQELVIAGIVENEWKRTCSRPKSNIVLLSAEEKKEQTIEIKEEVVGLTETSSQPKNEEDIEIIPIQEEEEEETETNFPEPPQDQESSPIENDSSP
Kind of assay: flow cytometry on A549-CD20, A549-CD19-CD20 and Raji cells, 20 µg/mL. An excerpt: (§1) To examine the affinity and specificity of the bi-specific scFv in TN-OF 19 CAR, a chimeric rabbit monoclonal antibody was generated by linking the CD20 scFv, derived from the Ofatumumab mAb and the CD19 scFv, derived from the FMC63 mAb in frame with a rabbit IgG1 Fc region. CD19 and CD20 scFvs were alternatively linked by a G4S linker. The molecular order is OF VL-VH-G4S-FMC63 VH-VL, which is the same as scFVs in TN-OF-19. The chimeric antibody was expressed in 293T cells after transient transfection. Validation of this chimeric antibody for specificity of staining was performed by flow cytometry. Briefly, three stable cell lines (A549-CD19, A549-CD20, A549-CD19-CD20) were used as targets, and CD19-CD20-A549 cells and CD19+CD20+ Raji cells were used as control. All cells were washed and resuspended, blocking by 2% serum for 30 minutes. 5×10⁵ cells were transferred to FACS vials, washed and stained with recombinant antibodies (final concentration 20 μg/mL) for 1 h at 4° C. After washing, the secondary antibody (goat anti-rabbit IgG) was added for 30 minutes in dark at 4° C. Finally, cells were washed and resuspended in 200 μL FACS buffer for FACS analysis.
In general terms: In flow cytometry, cells or beads pass a laser one at a time.

The target in assay [2] is T2, CD19 (UniProt P15391 20-556).
T2 construct: whole, on cells; also called CD19 on A549-CD19, A549-CD19-CD20, K562-CD19+, K562-CD19+CD20+ and Raji cells
T2 sequence (looked up): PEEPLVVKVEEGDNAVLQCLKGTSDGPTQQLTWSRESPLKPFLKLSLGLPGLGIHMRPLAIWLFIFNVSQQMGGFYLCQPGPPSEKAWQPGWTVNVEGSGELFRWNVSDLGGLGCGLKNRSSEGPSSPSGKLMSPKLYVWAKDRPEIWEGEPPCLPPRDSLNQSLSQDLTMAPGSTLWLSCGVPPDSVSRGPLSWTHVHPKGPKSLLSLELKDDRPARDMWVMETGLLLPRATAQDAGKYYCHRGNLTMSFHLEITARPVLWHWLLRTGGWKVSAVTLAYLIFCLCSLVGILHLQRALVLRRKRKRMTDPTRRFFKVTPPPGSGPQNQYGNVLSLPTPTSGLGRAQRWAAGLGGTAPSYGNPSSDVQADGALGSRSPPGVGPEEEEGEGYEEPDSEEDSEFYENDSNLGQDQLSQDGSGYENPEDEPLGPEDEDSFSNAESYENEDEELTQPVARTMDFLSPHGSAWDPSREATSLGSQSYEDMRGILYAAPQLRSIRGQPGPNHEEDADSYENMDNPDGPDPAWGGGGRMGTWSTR
Briefly: flow cytometry on A549-CD19, A549-CD19-CD20 and Raji cells, 20 µg/mL.
Text: as §1

B1: chimeric rabbit monoclonal antibody (CD20 scFv derived from the Ofatumumab mAb and CD19 scFv derived from the FMC63 mAb, in frame with a rabbit IgG1 Fc region; … (bispecific antibody)
chain: EIVLTQSPATLSLSPGERATLSCRASQSVSSYLAWYQQKPGQAPRLLIYDASNRATGIPARFSGSGSGTDFTLTISSLEPEDFAVYYCQQRSNWPITFGQGTRLEIKGSTSGGGSGGGSGGGGSSEVQLVESGGGLVQPGRSLRLSCAASGFTFNDYAMHWVRQAPGKGLEWVSTISWNSGSIGYADSVKGRFTISRDNAKKSLYLQMNSLRAEDTALYYCAKDIQYGNYYYGMDVWGQGTTVTVSSGGGGSEVKLQESGPGLVAPSQSLSVTCTVSGVSLPDYGVSWIRQPPRKGLEWLGVIWGSETTYYNSALKSRLTIIKDNSKSQVFLKMNSLQTDDTAIYYCAKHYYYGGSYAMDYWGQGTSVTVSSGSTSGSGKPGSGEGSTKGDIQMTQTTSSLSASLGDRVTISCRASQDISKYLNWYQQKPDGTVKLLIYHTSRLHSGVPSRFSGSGSGTDYSLTISNLEQEDIATYFCQQGNTLPYTFGGGTKLEIT
notes: Expressed in 293T cells after transient transfection; also called chimeric antibody; recombinant antibodies; not shown: rabbit IgG1 Fc region
For B1, the binding result in assay [1] and in assay [2] was “binds” in each case.
